Laboratory results published in patent US20210163604A1 (MITSUBISHI TANABE PHARMA, published 2021).

Key:
human cMET [1] = biological target: T1, human cMET (human, UniProt P08581 25-932, limits assumed); assay: SPR (Met Binding KD)
T1 construct: also called hMET; HGFR

[2] = biological target: T2, monkey cMET (Macaca fascicularis, Cynomolgus Macaque) (Cynomolgus Macaque (Macaca fascicularis), UniProt A0A2K5UM36 25-932); assay: ELISA, species cross-reactivity, antibody titrated on cynomolgus cMET; x axis printed -8 to 2 with ug/mL (log10)
T2 construct: also called Cyno cMET; NHP

human cMET [3] = biological target: T1, human cMET; assay: ELISA, species cross-reactivity, antibody titrated on human cMET; x axis printed -8 to 2 with ug/mL (log10)
[4] = biological target: T3, Recombinant Human c-Met-10x His (human, UniProt P08581 25-932); assay: MET Binding ELISA on plate-bound human cMET, direct binding; the half-maximal value is printed as IC50
T3 construct: Made in-house
From the text: Relative binding strength is indicated by luminescence (y-axis).

human cMET [5] = biological target: T1, human cMET; assay: ELISA on human cMET, ratio against the parental antibody
rat cMET = biological target: T4, rat cMET (rat, UniProt P97523 25-935, limits assumed); assay: ELISA on rat cMET, ratio against the parental antibody
T4 construct: also called rMET
T4 sequence (P97523 25-935 limits assumed): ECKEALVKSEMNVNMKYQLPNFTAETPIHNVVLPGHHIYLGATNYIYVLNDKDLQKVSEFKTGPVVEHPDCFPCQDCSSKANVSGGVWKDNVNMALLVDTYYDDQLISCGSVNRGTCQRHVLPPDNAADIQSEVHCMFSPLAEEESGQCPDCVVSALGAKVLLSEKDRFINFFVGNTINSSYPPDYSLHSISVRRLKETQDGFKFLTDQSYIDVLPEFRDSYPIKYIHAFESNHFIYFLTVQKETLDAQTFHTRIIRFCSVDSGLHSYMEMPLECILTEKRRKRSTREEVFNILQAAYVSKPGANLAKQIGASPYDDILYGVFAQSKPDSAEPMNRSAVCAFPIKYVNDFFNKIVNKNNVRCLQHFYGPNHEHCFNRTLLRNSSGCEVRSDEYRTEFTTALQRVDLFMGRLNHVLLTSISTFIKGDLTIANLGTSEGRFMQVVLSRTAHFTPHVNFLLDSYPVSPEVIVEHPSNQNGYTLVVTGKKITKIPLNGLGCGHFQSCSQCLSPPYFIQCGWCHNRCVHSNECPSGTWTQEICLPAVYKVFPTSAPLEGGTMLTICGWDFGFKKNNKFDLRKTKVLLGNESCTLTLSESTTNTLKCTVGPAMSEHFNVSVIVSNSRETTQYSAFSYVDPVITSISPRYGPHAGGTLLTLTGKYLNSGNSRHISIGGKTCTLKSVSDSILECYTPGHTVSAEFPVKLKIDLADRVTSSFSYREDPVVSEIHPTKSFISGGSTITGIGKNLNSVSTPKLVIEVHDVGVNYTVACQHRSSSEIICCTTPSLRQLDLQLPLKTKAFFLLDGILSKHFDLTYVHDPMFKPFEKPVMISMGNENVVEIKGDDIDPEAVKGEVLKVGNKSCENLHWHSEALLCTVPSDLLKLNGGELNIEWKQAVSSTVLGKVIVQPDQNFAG

T1 sequence (P08581 25-932 limits assumed): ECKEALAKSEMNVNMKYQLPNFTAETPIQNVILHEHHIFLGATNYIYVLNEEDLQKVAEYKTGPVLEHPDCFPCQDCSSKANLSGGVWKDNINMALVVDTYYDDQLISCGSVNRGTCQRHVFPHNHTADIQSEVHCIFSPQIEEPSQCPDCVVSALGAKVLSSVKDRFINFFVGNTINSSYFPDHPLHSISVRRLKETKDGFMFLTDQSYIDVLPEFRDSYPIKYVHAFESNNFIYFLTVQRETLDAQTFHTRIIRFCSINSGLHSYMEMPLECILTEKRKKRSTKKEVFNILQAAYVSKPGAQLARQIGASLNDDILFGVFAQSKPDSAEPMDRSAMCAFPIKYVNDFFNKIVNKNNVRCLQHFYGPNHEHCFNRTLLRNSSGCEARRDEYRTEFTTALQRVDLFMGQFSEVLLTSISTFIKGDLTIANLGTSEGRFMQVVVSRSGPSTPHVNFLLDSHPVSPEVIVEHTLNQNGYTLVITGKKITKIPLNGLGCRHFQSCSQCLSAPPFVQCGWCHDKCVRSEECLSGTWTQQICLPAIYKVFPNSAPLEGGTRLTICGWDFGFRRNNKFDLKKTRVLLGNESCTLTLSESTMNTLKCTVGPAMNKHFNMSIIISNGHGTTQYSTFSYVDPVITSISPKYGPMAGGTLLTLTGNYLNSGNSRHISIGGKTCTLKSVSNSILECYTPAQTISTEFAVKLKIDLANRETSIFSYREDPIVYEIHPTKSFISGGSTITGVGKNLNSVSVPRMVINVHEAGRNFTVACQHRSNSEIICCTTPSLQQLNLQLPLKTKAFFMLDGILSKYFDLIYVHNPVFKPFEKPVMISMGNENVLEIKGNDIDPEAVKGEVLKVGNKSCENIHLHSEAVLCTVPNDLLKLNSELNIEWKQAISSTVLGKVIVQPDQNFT
T3 sequence (P08581 other isoform, or with tags, fused parts or gaps limits assumed): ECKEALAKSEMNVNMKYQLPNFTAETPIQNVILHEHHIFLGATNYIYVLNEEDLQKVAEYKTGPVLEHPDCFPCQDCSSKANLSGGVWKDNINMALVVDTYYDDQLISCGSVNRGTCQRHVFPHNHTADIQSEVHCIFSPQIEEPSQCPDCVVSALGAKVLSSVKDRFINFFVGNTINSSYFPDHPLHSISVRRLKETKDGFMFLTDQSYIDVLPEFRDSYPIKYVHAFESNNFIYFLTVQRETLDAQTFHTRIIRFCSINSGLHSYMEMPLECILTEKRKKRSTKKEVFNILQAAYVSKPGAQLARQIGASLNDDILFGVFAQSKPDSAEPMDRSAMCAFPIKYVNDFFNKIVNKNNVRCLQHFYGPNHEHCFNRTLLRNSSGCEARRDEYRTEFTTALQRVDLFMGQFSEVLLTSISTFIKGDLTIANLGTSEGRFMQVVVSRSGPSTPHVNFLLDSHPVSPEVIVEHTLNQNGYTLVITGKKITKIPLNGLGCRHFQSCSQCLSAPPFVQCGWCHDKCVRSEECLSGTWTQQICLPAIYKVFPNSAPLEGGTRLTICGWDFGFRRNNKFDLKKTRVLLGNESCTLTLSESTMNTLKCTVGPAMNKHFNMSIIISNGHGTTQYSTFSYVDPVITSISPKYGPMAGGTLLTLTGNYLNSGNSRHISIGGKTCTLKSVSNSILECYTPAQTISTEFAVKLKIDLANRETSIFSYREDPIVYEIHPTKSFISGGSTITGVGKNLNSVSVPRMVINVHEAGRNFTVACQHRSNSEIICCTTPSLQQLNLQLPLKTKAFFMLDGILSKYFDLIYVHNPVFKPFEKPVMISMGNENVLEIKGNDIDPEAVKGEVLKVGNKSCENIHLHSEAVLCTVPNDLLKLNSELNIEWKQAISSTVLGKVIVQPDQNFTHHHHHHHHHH
T2 sequence (A0A2K5UM36 entry or part of it limits assumed): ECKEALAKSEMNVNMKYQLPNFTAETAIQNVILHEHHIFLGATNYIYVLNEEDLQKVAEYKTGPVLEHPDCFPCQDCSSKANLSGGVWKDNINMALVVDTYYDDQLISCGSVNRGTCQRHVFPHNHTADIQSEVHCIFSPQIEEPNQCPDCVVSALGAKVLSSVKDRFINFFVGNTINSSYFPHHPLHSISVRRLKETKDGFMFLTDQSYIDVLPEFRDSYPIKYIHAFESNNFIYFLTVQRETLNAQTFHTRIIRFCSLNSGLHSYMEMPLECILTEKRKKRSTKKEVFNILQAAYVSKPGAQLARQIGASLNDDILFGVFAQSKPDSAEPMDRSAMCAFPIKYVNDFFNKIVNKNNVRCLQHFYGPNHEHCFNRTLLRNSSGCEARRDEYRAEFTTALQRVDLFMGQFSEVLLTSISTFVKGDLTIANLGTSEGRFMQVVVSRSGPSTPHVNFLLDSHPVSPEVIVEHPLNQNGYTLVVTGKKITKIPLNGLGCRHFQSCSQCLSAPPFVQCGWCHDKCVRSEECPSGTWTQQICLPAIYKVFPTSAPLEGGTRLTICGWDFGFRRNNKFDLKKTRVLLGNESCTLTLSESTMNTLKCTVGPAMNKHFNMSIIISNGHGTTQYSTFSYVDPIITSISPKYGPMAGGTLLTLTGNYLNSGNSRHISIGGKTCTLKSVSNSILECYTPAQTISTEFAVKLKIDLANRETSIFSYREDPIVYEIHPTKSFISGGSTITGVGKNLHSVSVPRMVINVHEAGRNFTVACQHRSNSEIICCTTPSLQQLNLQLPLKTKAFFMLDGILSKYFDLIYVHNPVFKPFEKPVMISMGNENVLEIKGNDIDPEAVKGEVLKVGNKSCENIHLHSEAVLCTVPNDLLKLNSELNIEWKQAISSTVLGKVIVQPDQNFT

ELISA hMET vs parental (human cMET [5])	ELISA rMET vs parental (rat cMET)	Molecule	further results
		5D5 (agonist Met-mAb antibody, agonist positive control)	Kd (human cMET [1]): 0.85 nM
		F6AP8E2 mouse monoclonal anti-cMET antibody (antibody, V domains shown, Mouse hybridoma antibody) VH: EVQLQQSGAELVRPGALVKLSCKASGFNINDYFMHWVKQRPEQGLEWIGWIDPENGNTIYDPKFQGKASITADTSSNTAYLQLSSLTSEDTAVYYCARGGNYLRESYYYAMDYWGQGTSVTVSS VL: DIVMTQSPKSMSMSVGERVTLSCKASENVGTYVSWYQQKPDQSPKLLIYGASNRYTGVPDRFTGSGSATDFTLTISSVQAEDLADYHCGQSYSYPLTFGAGTKLELKR	EC50 (read off the curve) [2]: ~0.2 mg/L; Kd (human cMET [1]): 0.18 nM; EC50 (read off the curve) (human cMET [3]): ~0.2 mg/L
		F6B1P3D12 mouse monoclonal anti-cMET antibody (antibody, V domains shown, Mouse hybridoma antibody) VH: QVQLQQSGAELAKPGASVKMSCRASGYTFTSYWMHWVKQRPGQGLDWIGYIKPSTDNTEYNQKFKDKATLTADKSSSTAYMQLSSLTSEDSAVYYCARSYGNYPLMDYWGQGTSVTVSS VL: QIVLTQSPAIMSASPGEKVTLTCSASSSVTSNYLYWYQQKPGSSPKLWIYSTSNLASGVPARFSGSGSGTSYSLTISSMEAEDAASYFCHQWSSYPPTFGSGTKLEIKR	EC50 (read off the curve) [2]: ~0.2 mg/L; EC50 (read off the curve) (human cMET [3]): ~0.2 mg/L
		hD12-VII (antibody hD12 attached to the payload of chemical formula VII, stochastic conjugation) (antibody, human IgG2, kappa, V domains shown, payload possibly on cysteines (random positions); payload of chemical formula VII linked through maleimide to cysteine thiols at random positions, Antibody-drug conjugate; also called hD12-vc-VII) VH: QVQLVQSGAEVKKPGASVKVSCKASGYTFTSYWMHWVKQAPGQGLDWIGYIKPSTDNTEYNQKFKDKATLTADKSTSTAYMELSSLRSEDTAVYYCARSYGNYPLMDYWGQGTTVTVSS VL: QIVLTQSPAILSLSPGERATLSCSASSSVTSNYLYWYQQKPGSSPKLLIYSTSNLASGVPARFSGSGSGTSYTLTISSLEAEDAASYFCHQWSSYPPTFGSGTKLEIKR	IC50 [4]: 0.042 mg/L
		hD12-XI (antibody hD12 attached to the payload of chemical formula XI, stochastic conjugation) (antibody, human IgG2, kappa, V domains shown, payload possibly on cysteines (random positions); payload of chemical formula XI linked through maleimide to cysteine thiols at random positions, Antibody-drug conjugate; also called hD12-vc-XI) VH: QVQLVQSGAEVKKPGASVKVSCKASGYTFTSYWMHWVKQAPGQGLDWIGYIKPSTDNTEYNQKFKDKATLTADKSTSTAYMELSSLRSEDTAVYYCARSYGNYPLMDYWGQGTTVTVSS VL: QIVLTQSPAILSLSPGERATLSCSASSSVTSNYLYWYQQKPGSSPKLLIYSTSNLASGVPARFSGSGSGTSYTLTISSLEAEDAASYFCHQWSSYPPTFGSGTKLEIKR	IC50 [4]: 0.103 mg/L
		F6BP2D4 mouse monoclonal anti-cMET antibody (antibody, V domains shown, Mouse hybridoma antibody) VH: QVQLQQSGAELAKPGASVKMSCKASGYTFTSYWMHWVKQRPGQGLEWIGYINPSTDYIEYNQKFKDKATLTAGKSSSTAYMQLSSLTSEDSAVYYCARSYGNFPLMDYWGQGTSVTVSS VL: QIVLTQSPAIMSASPGEKVTLTCSASSSVSSNYLYWYQQKPGSSPKLWIYSTSNLASGVPVRFSGSGSGTSYSLTISSMEAEDAASYFCHQWSSYPPTFGSGTKLEIKR	EC50 (read off the curve) [2]: ~0.2 mg/L; EC50 (read off the curve) (human cMET [3]): ~0.2 mg/L
1.7	1.2	humanized P3D12 antibody, HC SEQ ID NO: 105 (P3D12 VH-fra) / LC SEQ ID NO: 46 (P3D12 VL-ven) (antibody, V domains shown) VH: QVQLQQSGAEVKKPGASVKVSCKASGYTFTSYWMHWVKQRPGQGLDWIGYIKPSTDNTEYNQKFKDRVTLTADKSTSTAYMQLSNLISEDTAVYYCARSYGNYPLMDYWGQGTSVTVSS VL: QIVLTQSPATMSASPGERVTLSCSASSSVTSNYLYWYQQKPGSSPRLWIYSTSNLASGVPARFSGSGSGTSYTLTISRMEPEDAASYFCHQWSSYPPTFGSGTKLEIKR	
		hD12-II (antibody hD12 attached to the payload of chemical formula II, stochastic conjugation) (antibody, human IgG2, kappa, V domains shown, payload possibly on cysteines (random positions); payload of chemical formula II (pyrrolobenzodiazepine toxin and linking group) linked through maleimide to cysteine thiols at random positions, also called hD12-vc-II) VH: QVQLVQSGAEVKKPGASVKVSCKASGYTFTSYWMHWVKQAPGQGLDWIGYIKPSTDNTEYNQKFKDKATLTADKSTSTAYMELSSLRSEDTAVYYCARSYGNYPLMDYWGQGTTVTVSS VL: QIVLTQSPAILSLSPGERATLSCSASSSVTSNYLYWYQQKPGSSPKLLIYSTSNLASGVPARFSGSGSGTSYTLTISSLEAEDAASYFCHQWSSYPPTFGSGTKLEIKR	IC50 [4]: 0.052 mg/L
0.7	0.9	humanized P3D12 antibody, HC SEQ ID NO: 108 (P3D12 VH-cdr) / LC SEQ ID NO: 47 (P3D12 VL-fra) (antibody, V domains shown) VH: QVQLVQSGAEVKKPGASVKVSCKASGYTFTSYWMHWVKQAPGQGLDWIGYIKPSTDNTEYNQKFKDKATLTADKSTSTAYMELSSLRSEDTAVYYCARSYGNYPLMDYWGQGTTVTVSS VL: QIVLTQSPAILSLSPGERATLSCSASSSVTSNYLYWYQQKPGSSPKLLIYSTSNLASGVPARFSGSGSGTSYTLTISSLEAEDAASYFCHQWSSYPPTFGSGTKLEIKR	
		hD12-VI (antibody hD12 attached to the payload of chemical formula VI, stochastic conjugation) (antibody, human IgG2, kappa, V domains shown, payload possibly on cysteines (random positions); payload of chemical formula VI linked through maleimide to cysteine thiols at random positions, Antibody-drug conjugate; also called hD12-vc-VI) VH: QVQLVQSGAEVKKPGASVKVSCKASGYTFTSYWMHWVKQAPGQGLDWIGYIKPSTDNTEYNQKFKDKATLTADKSTSTAYMELSSLRSEDTAVYYCARSYGNYPLMDYWGQGTTVTVSS VL: QIVLTQSPAILSLSPGERATLSCSASSSVTSNYLYWYQQKPGSSPKLLIYSTSNLASGVPARFSGSGSGTSYTLTISSLEAEDAASYFCHQWSSYPPTFGSGTKLEIKR	IC50 [4]: 0.036 mg/L
		F6B1P1E2 mouse monoclonal anti-cMET antibody (antibody, V domains shown, Mouse hybridoma antibody) VH: QVQLQQSGAELAKPGASVKMSCKASGYTFTSYWMHWVKQRPGQGLEWIGYINPSTDYTEYNQKFKDKATLTADKSSTTAYMQLSSLTSEDSAVYYCVRSYGNYPLMDYWGQGTSVTVSS VL: QIVLTQSPAIMSASPGEKVTLTCSASSSVSSNYLYWYHQKPGSSPKLWIYSTSNLASGVPVRFSGSGSGTSYSLTISSMEAEDAASYFCHQWSSYPPTFGSGTKLEIKR	EC50 (read off the curve) [2]: ~0.2 mg/L; EC50 (read off the curve) (human cMET [3]): ~0.2 mg/L
		hD12-IV (antibody hD12 attached to the payload of chemical formula IV, stochastic conjugation) (antibody, human IgG2, kappa, V domains shown, payload possibly on cysteines (random positions); payload of chemical formula IV linked through maleimide to cysteine thiols at random positions, Antibody-drug conjugate; also called hD12-vc-IV) VH: QVQLVQSGAEVKKPGASVKVSCKASGYTFTSYWMHWVKQAPGQGLDWIGYIKPSTDNTEYNQKFKDKATLTADKSTSTAYMELSSLRSEDTAVYYCARSYGNYPLMDYWGQGTTVTVSS VL: QIVLTQSPAILSLSPGERATLSCSASSSVTSNYLYWYQQKPGSSPKLLIYSTSNLASGVPARFSGSGSGTSYTLTISSLEAEDAASYFCHQWSSYPPTFGSGTKLEIKR	IC50 [4]: 0.058 mg/L
1.7	1.4	humanized P3D12 antibody, HC SEQ ID NO: 105 (P3D12 VH-fra) / LC SEQ ID NO: 47 (P3D12 VL-fra) (antibody, V domains shown) VH: QVQLQQSGAEVKKPGASVKVSCKASGYTFTSYWMHWVKQRPGQGLDWIGYIKPSTDNTEYNQKFKDRVTLTADKSTSTAYMQLSNLISEDTAVYYCARSYGNYPLMDYWGQGTSVTVSS VL: QIVLTQSPAILSLSPGERATLSCSASSSVTSNYLYWYQQKPGSSPKLLIYSTSNLASGVPARFSGSGSGTSYTLTISSLEAEDAASYFCHQWSSYPPTFGSGTKLEIKR	
1.3	2.7	humanized P3D12 antibody, HC SEQ ID NO: 108 (P3D12 VH-cdr) / LC SEQ ID NO: 48 (P3D12 VL-abb/sdr) (antibody, V domains shown) VH: QVQLVQSGAEVKKPGASVKVSCKASGYTFTSYWMHWVKQAPGQGLDWIGYIKPSTDNTEYNQKFKDKATLTADKSTSTAYMELSSLRSEDTAVYYCARSYGNYPLMDYWGQGTTVTVSS VL: QIVLTQSPATLSLSPGERATLSCRASQSVTSNYLYWYQQKPGSSPRLLIYSTSNLASGVPARFSGSGSGTDYTLTISRLEPEDFASYFCHQWSSYPPTFGSGTKLEIKR	
1	0.5	humanized P3D12 antibody, HC SEQ ID NO: 107 (P3D12 VH-abb/sdr) / LC SEQ ID NO: 47 (P3D12 VL-fra) (antibody, V domains shown) VH: QVQLVQSGAEVKKPGASVKVSCKASGYTFTSYWMHWVKQAPGQGLDWMGYIKPSTDNTEYAQKFQGRVTLTADKSTSTAYMELSSLRSEDTAVYYCARSYGNYPLMDYWGQGTTVTVSS VL: QIVLTQSPAILSLSPGERATLSCSASSSVTSNYLYWYQQKPGSSPKLLIYSTSNLASGVPARFSGSGSGTSYTLTISSLEAEDAASYFCHQWSSYPPTFGSGTKLEIKR	
1	2	humanized P3D12 antibody, HC SEQ ID NO: 108 (P3D12 VH-cdr) / LC SEQ ID NO: 49 (P3D12 VL-cdr) (antibody, V domains shown) VH: QVQLVQSGAEVKKPGASVKVSCKASGYTFTSYWMHWVKQAPGQGLDWIGYIKPSTDNTEYNQKFKDKATLTADKSTSTAYMELSSLRSEDTAVYYCARSYGNYPLMDYWGQGTTVTVSS VL: QIVLTQSPATLSLSPGERATLSCSASSSVTSNYLYWYQQKPGSSPRLLIYSTSNLASGVPARFSGSGSGTSYTLTISRLEPEDFASYFCHQWSSYPPTFGSGTKLEIKR	
1.1	1	humanized P3D12 antibody, HC SEQ ID NO: 108 (P3D12 VH-cdr) / LC SEQ ID NO: 46 (P3D12 VL-ven) (antibody, V domains shown) VH: QVQLVQSGAEVKKPGASVKVSCKASGYTFTSYWMHWVKQAPGQGLDWIGYIKPSTDNTEYNQKFKDKATLTADKSTSTAYMELSSLRSEDTAVYYCARSYGNYPLMDYWGQGTTVTVSS VL: QIVLTQSPATMSASPGERVTLSCSASSSVTSNYLYWYQQKPGSSPRLWIYSTSNLASGVPARFSGSGSGTSYTLTISRMEPEDAASYFCHQWSSYPPTFGSGTKLEIKR	
1.8	3.8	humanized P3D12 antibody, HC SEQ ID NO: 105 (P3D12 VH-fra) / LC SEQ ID NO: 48 (P3D12 VL-abb/sdr) (antibody, V domains shown) VH: QVQLQQSGAEVKKPGASVKVSCKASGYTFTSYWMHWVKQRPGQGLDWIGYIKPSTDNTEYNQKFKDRVTLTADKSTSTAYMQLSNLISEDTAVYYCARSYGNYPLMDYWGQGTSVTVSS VL: QIVLTQSPATLSLSPGERATLSCRASQSVTSNYLYWYQQKPGSSPRLLIYSTSNLASGVPARFSGSGSGTDYTLTISRLEPEDFASYFCHQWSSYPPTFGSGTKLEIKR	
1.7	2.3	humanized P3D12 antibody, HC SEQ ID NO: 105 (P3D12 VH-fra) / LC SEQ ID NO: 49 (P3D12 VL-cdr) (antibody, V domains shown) VH: QVQLQQSGAEVKKPGASVKVSCKASGYTFTSYWMHWVKQRPGQGLDWIGYIKPSTDNTEYNQKFKDRVTLTADKSTSTAYMQLSNLISEDTAVYYCARSYGNYPLMDYWGQGTSVTVSS VL: QIVLTQSPATLSLSPGERATLSCSASSSVTSNYLYWYQQKPGSSPRLLIYSTSNLASGVPARFSGSGSGTSYTLTISRLEPEDFASYFCHQWSSYPPTFGSGTKLEIKR	
